This assay has as its target T1, EV A71 VLP (Enterovirus A71, UniProt Q66478 2-862).
T1 construct: Multi-subunit particle
T1 sequence: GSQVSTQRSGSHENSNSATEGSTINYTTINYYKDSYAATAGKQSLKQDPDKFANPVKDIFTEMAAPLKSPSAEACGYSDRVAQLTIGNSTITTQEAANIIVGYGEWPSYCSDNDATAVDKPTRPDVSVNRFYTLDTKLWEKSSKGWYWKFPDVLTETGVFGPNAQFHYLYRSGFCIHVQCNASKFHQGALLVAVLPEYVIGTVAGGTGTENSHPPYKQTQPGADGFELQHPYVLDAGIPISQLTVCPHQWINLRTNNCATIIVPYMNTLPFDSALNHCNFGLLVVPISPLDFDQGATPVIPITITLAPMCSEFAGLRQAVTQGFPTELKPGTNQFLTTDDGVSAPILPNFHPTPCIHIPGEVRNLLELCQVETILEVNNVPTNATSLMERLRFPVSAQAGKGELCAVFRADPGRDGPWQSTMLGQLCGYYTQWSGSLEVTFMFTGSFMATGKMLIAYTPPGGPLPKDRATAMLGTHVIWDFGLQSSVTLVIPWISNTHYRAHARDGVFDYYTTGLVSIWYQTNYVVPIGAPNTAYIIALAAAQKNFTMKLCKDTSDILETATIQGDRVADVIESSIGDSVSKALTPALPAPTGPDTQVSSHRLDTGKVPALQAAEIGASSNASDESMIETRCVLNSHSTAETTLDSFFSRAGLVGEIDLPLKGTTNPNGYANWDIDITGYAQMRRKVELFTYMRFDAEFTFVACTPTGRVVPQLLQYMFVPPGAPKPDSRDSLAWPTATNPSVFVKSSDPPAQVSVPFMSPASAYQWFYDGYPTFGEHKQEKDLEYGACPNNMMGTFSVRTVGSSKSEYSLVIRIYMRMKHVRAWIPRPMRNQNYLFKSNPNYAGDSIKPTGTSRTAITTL
Briefly: Western blot on denatured VLP. (In general: In western blotting, separated proteins are transferred to a membrane and probed.)

B1: 单克隆抗体3C4 (antibody, mouse IgG1, kappa, V domains shown)
VH: QVTLKESGPGILQPSQTLSLTCSFSGFSLSTSGMGVSWIRQPSGKGLEWLAHIWWDDDKRYNPALKSRLTISKDTSNNQVFLRIASVDTADTATYYCVRIGGYFWGQGTSVTVSS
VL: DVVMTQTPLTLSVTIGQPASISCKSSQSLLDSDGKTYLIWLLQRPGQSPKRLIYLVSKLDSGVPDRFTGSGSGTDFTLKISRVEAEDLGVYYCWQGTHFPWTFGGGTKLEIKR
notes: Mouse IgG1 kappa; also called 3C4单抗; 杂交瘤细胞株3C4
B1: the binding result is “no binding (tested: 1μg/mL)”.

For the origin of these results see patent publication CN116284353A (HUASONG SHANGHAI BIOMEDICAL TECH CO LTD, dated 2023).
